Results published in US20230002480A1.

What was measured:
Test in all cases: cell-based or functional assay
[1] = molecular target: HIV-1 Env of pseudovirus BJOX025000.01.1 (clade CRF01_AE (T/F)) (HIV-1)
[2] = molecular target: HIV-1 Env of pseudovirus BJOX028000.10.3 (clade CRF01_AE (T/F)) (HIV-1)
[3] = molecular target: HIV-1 Env of pseudovirus C1080.c03 (clade CRF01_AE) (HIV-1)
[4] = molecular target: HIV-1 Env of pseudovirus R1166.c01 (clade CRF01_AE) (HIV-1)
[5] = molecular target: HIV-1 Env of pseudovirus T255-34 (clade CRF02_AG) (HIV-1)
[6] = molecular target: HIV-1 Env of pseudovirus BF1266.431a (clade C (T/F)) (HIV-1)
[7] = molecular target: HIV-1 Env of pseudovirus CNE19 (clade BC) (HIV-1)
[8] = molecular target: HIV-1 Env of pseudovirus Ce0682_E4 (clade C (T/F)) (HIV-1)
[9] = molecular target: HIV-1 Env of pseudovirus Ce1086_B2 (clade C (T/F)) (HIV-1)
[10] = molecular target: HIV-1 Env of pseudovirus Ce703010054_2A2 (clade C (T/F)) (HIV-1)
[11] = molecular target: HIV-1 Env of pseudovirus Du156.12 (clade C) (HIV-1)
[12] = molecular target: HIV-1 Env of pseudovirus PVO.4 (clade B) (HIV-1)
[13] = molecular target: HIV-1 Env of pseudovirus Q23.17 (clade A) (HIV-1)
[14] = molecular target: HIV-1 Env of pseudovirus QH0692.42 (clade B) (HIV-1)
[15] = molecular target: HIV-1 Env of pseudovirus SC422661.8 (clade B) (HIV-1)
[16] = molecular target: HIV-1 Env of pseudovirus WITO4160.33 (clade B) (HIV-1)
[17] = molecular target: HIV-1 Env of pseudovirus ZM214M.PL15 (clade C) (HIV-1)
[18] = molecular target: HIV-1 Env pseudovirus 211-9 (HIV-1)
[19] = molecular target: HIV-1 Env pseudovirus 3016.v5.c45 (HIV-1)
[20] = molecular target: HIV-1 Env pseudovirus 3817.v2.c59 (HIV-1)
[21] = molecular target: HIV-1 Env pseudovirus 6540.v4.c1 (HIV-1)
[22] = molecular target: HIV-1 Env pseudovirus 9004SS_A3_4 (HIV-1)
[23] = molecular target: HIV-1 Env pseudovirus A07412M1.vrc12 (HIV-1)
[24] = molecular target: HIV-1 Env pseudovirus BJOX015000.11.5 (HIV-1)
[25] = molecular target: HIV-1 Env pseudovirus C1080.c03 (HIV-1)
[26] = molecular target: HIV-1 Env pseudovirus C2101.c01 (HIV-1)
[27] = molecular target: HIV-1 Env pseudovirus C3347.c11 (HIV-1)
[28] = molecular target: HIV-1 Env pseudovirus C4118.c09 (HIV-1)
[29] = molecular target: HIV-1 Env pseudovirus P1981_C5_3 (HIV-1)
[30] = molecular target: HIV-1 Env pseudovirus T278-50 (HIV-1)
[31] = molecular target: HIV-1 Env pseudovirus X2088_c9 (HIV-1)
[32] = molecular target: HIV-1 Env pseudovirus X2131_C1_B5 (HIV-1)

Substance: PG9 (antibody)
- IC50, titer in TZM.bl cells [1]: 0.144 µg/mL
- IC80, titer in TZM.bl cells [1]: 0.335 µg/mL
- IC50, titer in TZM.bl cells [2]: 1.1 µg/mL
- IC80, titer in TZM.bl cells [2]: 21.5 µg/mL
- IC50, titer in TZM.bl cells [3]: 0.004 µg/mL
- IC80, titer in TZM.bl cells [3]: 0.013 µg/mL
- IC50, titer in TZM.bl cells [4]: 0.736 µg/mL
- IC80, titer in TZM.bl cells [4]: 2.88 µg/mL
- IC50, titer in TZM.bl cells [5]: 0.023 µg/mL
- IC80, titer in TZM.bl cells [5]: 0.134 µg/mL

Substance: N49P18.1 (antibody)
- IC50 [6]: 3.48 µg/mL
- IC80 [6]: 20.8 µg/mL
- MPI [6]: 93
- IC50 [7]: 2.34 µg/mL
- IC80 [7]: 9.64 µg/mL
- MPI [7]: 99
- IC50 [8]: 3.95 µg/mL
- IC80 [8]: 21.1 µg/mL
- MPI [8]: 96
- IC50 [9]: 8.98 µg/mL
- IC80 [9]: 48 µg/mL
- MPI [9]: 92
- IC50 [10]: 4.15 µg/mL
- IC80 [10]: 11.6 µg/mL
- MPI [10]: 98
- IC50 [11]: 1.88 µg/mL
- IC80 [11]: 6.81 µg/mL
- MPI [11]: 100
- IC50 [12]: 9.65 µg/mL
- IC80 [12]: 40.2 µg/mL
- MPI [12]: 84
- IC50 [13]: 1.16 µg/mL
- IC80 [13]: 6.93 µg/mL
- MPI [13]: 100
- IC50 [14]: > 50 µg/mL
- IC80 [14]: > 50 µg/mL
- MPI [14]: 43
- IC50 [15]: 14.1 µg/mL
- IC80 [15]: 43.4 µg/mL
- MPI [15]: 84
- IC50 [16]: 11 µg/mL
- IC80 [16]: 37.6 µg/mL
- MPI [16]: 87
- IC50 [17]: > 50 µg/mL
- IC80 [17]: > 50 µg/mL
- MPI [17]: 20

Substance: 10-1074 (antibody)
- IC50, titer in TZM.bl cells [1]: > 50 µg/mL
- IC80, titer in TZM.bl cells [1]: > 50 µg/mL
- IC50, titer in TZM.bl cells [2]: > 50 µg/mL
- IC80, titer in TZM.bl cells [2]: > 50 µg/mL
- IC50, titer in TZM.bl cells [3]: > 50 µg/mL
- IC80, titer in TZM.bl cells [3]: > 50 µg/mL
- IC50, titer in TZM.bl cells [4]: > 50 µg/mL
- IC80, titer in TZM.bl cells [4]: > 50 µg/mL
- IC50, titer in TZM.bl cells [5]: > 50 µg/mL
- IC80, titer in TZM.bl cells [5]: > 50 µg/mL

Substance: N49P9 (antibody)
- IC50 [18]: 0.136 µg/mL
- IC80 [18]: 0.485 µg/mL
- MPI [18]: 100
- IC50 [19]: 0.06 µg/mL
- IC80 [19]: 0.209 µg/mL
- MPI [19]: 100
- IC50 [20]: 1.09 µg/mL
- IC80 [20]: 5.86 µg/mL
- MPI [20]: 100
- IC50 [21]: > 50 µg/mL
- IC80 [21]: > 50 µg/mL
- MPI [21]: 49
- IC50 [22]: 0.175 µg/mL
- IC80 [22]: 0.751 µg/mL
- MPI [22]: 100
- IC50 [23]: 0.142 µg/mL
- IC80 [23]: 0.636 µg/mL
- MPI [23]: 100
- IC50 [24]: 0.089 µg/mL
- IC80 [24]: 0.375 µg/mL
- MPI [24]: 100
- IC50 [25]: 0.119 µg/mL
- IC80 [25]: 0.575 µg/mL
- MPI [25]: 100
- IC50 [26]: 0.051 µg/mL
- IC80 [26]: 0.209 µg/mL
- MPI [26]: 100
- IC50 [27]: 0.023 µg/mL
- IC80 [27]: 0.065 µg/mL
- MPI [27]: 100
- IC50 [28]: 0.072 µg/mL
- IC80 [28]: 0.2 µg/mL
- MPI [28]: 100
- IC50 [29]: 0.308 µg/mL
- IC80 [29]: 0.701 µg/mL
- MPI [29]: 100
- IC50 [30]: > 50 µg/mL
- IC80 [30]: > 50 µg/mL
- MPI [30]: 25
- IC50 [31]: 0.07 µg/mL
- IC80 [31]: 0.252 µg/mL
- MPI [31]: 100
- IC50 [32]: 0.082 µg/mL
- IC80 [32]: 0.274 µg/mL
- MPI [32]: 100

Substance: PG16 (antibody)
- IC50, titer in TZM.bl cells [1]: 0.071 µg/mL
- IC80, titer in TZM.bl cells [1]: > 50 µg/mL
- IC50, titer in TZM.bl cells [2]: > 50 µg/mL
- IC80, titer in TZM.bl cells [2]: > 50 µg/mL
- IC50, titer in TZM.bl cells [3]: 0.001 µg/mL
- IC80, titer in TZM.bl cells [3]: 0.003 µg/mL
- IC50, titer in TZM.bl cells [4]: 0.28 µg/mL
- IC80, titer in TZM.bl cells [4]: 4.38 µg/mL
- IC50, titer in TZM.bl cells [5]: 0.024 µg/mL
- IC80, titer in TZM.bl cells [5]: 0.125 µg/mL
